This test addresses T1, GST-SHIP164-CT (residues 1063–1364) (UniProt A0JNW5 1063-1364).
T1 construct: SHIP164, fragment of the C-terminal region, residues 1063-1364; also called purified SHIP164-CT fragment (residues 1063–1364); source: TSsetta (DE3) cells, purified (GST-tag resin)
The test is described as follows: pull-down; GST pull-down: purified GST protein on GST tag resin, His fusion protein added, 12 h at 4 °C, HNM buffer (20 mM HEPES pH 7.4, 100 mM NaCl, 5 mM MgCl2, 1 mM DTT, 0.2% NP-40); blot with anti-GST or His antibodies. As to conditions: both partners purified.

T1 sequence (A0JNW5 1063-1364): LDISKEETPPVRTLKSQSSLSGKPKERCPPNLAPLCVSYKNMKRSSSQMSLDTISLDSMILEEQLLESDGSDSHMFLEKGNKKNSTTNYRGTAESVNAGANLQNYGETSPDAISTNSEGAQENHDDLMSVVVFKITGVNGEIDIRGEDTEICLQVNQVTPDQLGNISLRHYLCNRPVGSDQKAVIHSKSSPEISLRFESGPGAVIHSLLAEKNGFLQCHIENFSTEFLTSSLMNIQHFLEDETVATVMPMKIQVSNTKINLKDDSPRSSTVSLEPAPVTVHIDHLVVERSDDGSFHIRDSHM

B1: His-Vps26B-NT (residues 1–160) (domain or fragment, UniProt Q4G0F5 1-160, looked up)
chain: MSFFGFGQSVEVEILLNDAESRKRAEHKTEDGKKEKYFLFYDGETVSGKVSLALKNPNKRLEHQGIKIEFIGQIELYYDRGNHHEFVSLVKDLARPGEITQSQAFDFEFTHVEKPYESYTGQNVKLRYFLRATISRRLNDVVKEMDIVVHTLSTYPELNS
notes: Vps26B N-terminal region, residues 1-160; also called His-Vps26B NT region; purified Vps26B-NT fragment; source: TSsetta (DE3) cells, purified (Ni-NTA resin)
As to B1, the binding result was “binds”.

Values taken from paper PMC10987540, “Biogenesis of Rab14-positive endosome buds at Golgi–endosome contacts by the RhoBTB3–SHIP164–Vps26B complex” (Cell Discovery, 2024).
